{
  "source": "patent US20240190903",
  "about": "“COMPOUNDS FOR PROGRAMMABLE PROTEIN DEGRADATION AND METHODS OF USE FOR THE TREATMENT OF DISEASE” (Mayo Foundation for Medical Education and Research, published 2024)",
  "binders": {"B1": {"name": "CTNNB1 probe 1 (MP53BS) (dsDNA)", "DNA 1": "GCCCCCTCGCGCCCCGCCCCTTGTC", "DNA 2": "GACAAGGGGCGGGGCGCGAGGGGGC"}},
  "target": "p53 WT (UniProt P04637 P04637:1-393)",
  "sequence (P04637 whole entry, one chain of several)": "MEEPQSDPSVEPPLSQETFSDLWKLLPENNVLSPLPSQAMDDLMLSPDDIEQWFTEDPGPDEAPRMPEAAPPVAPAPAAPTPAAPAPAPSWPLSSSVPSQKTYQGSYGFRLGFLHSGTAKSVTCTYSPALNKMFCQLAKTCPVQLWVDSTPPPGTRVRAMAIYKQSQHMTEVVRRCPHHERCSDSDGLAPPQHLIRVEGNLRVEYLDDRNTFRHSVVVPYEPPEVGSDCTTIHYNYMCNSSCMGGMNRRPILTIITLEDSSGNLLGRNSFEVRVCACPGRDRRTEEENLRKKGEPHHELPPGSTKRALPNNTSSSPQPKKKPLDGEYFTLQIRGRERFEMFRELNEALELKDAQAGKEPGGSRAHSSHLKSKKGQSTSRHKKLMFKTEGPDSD",
  "test": "EMSA; GST-p53 purified from bacteria",
  "conditions": "tags: GST; chain copies: 4; label: biotin",
  "procedure": "For supershift assay, anti-p53 antibodies were added into the cell nuclear extract mixed with the biotin-labeled probes and the mixture were incubated with for 1 hour at room temperature before loading into 6% of non-denatured polyacrylamide gel.",
  "data": [
    {"binder": "B1", "values": [
      {"measurement": "binding result", "value": "no binding"}
    ]}
  ]
}
